Data taken from the supplement of paper PMC9112550, “Optimization of the antimicrobial peptide Bac7 by deep mutational scanning” (BMC Biology, 2022).

Test system: Escherichia coli TOP10
Assay: shrunken log2 fold change of peptide-encoding DNA abundance (4.5 h post-induction vs induction); higher = less antimicrobial activity (less host growth inhibition)
Details: time post-induction: 4.5 h; library: site-saturation at positions 5, 18, 19, 20
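Further: peptides expressed intracellularly from a pBAD plasmid library in pooled LB shake-flask culture, induced with 0.3% L-arabinose, DNA abundance read by NGS, three biological replicates, DESeq2 with apeglm shrinkage.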

Row | Sequence | shrunken log2 fold change
1 | RRIRMRPPRLPRPRPRPFFWPRP | 0.593
2 | RRIRNRPPRLPRPRPRPKLKPRP | 0.2
3 | RRIRMRPPRLPRPRPRPYIQPRP | -1.05
4 | RRIRKRPPRLPRPRPRPIDNPRP | 0.0107
5 | RRIRHRPPRLPRPRPRPGTGPRP | -0.0184
6 | RRIRRRPPRLPRPRPRPSHLPRP | -0.21
7 | RRIRPRPPRLPRPRPRPQRMPRP | 0.209
8 | RRIRDRPPRLPRPRPRPPWCPRP | 0.203
9 | RRIRGRPPRLPRPRPRPGHVPRP | 0.204
10 | RRIRIRPPRLPRPRPRPWKAPRP | -0.00804
11 | RRIRLRPPRLPRPRPRPHYQPRP | -0.361
12 | RRIRCRPPRLPRPRPRPPAAPRP | 1.78
13 | RRIRRRPPRLPRPRPRPLGHPRP | 0.203
14 | RRIRVRPPRLPRPRPRPSTNPRP | -0.146
15 | RRIRIRPPRLPRPRPRPWFNPRP | -1.25
16 | RRIRYRPPRLPRPRPRPHVRPRP | -0.202
17 | RRIRSRPPRLPRPRPRPGPFPRP | 0.00218
18 | RRIRARPPRLPRPRPRPIEFPRP | -0.0488
19 | RRIRTRPPRLPRPRPRPGEWPRP | 0.0179
20 | RRIRCRPPRLPRPRPRPDARPRP | -0.0562
21 | RRIRCRPPRLPRPRPRPIRKPRP | -0.126
22 | RRIRLRPPRLPRPRPRPTNHPRP | -0.174
23 | RRIRERPPRLPRPRPRPPHRPRP | 0.0387
24 | RRIRTRPPRLPRPRPRPFYAPRP | -0.301
25 | RRIRKRPPRLPRPRPRPCTVPRP | 0.23

Row | Sequence | shrunken log2 fold change
26 | RRIRVRPPRLPRPRPRPGHAPRP | 0.245
27 | RRIRCRPPRLPRPRPRPCDWPRP | 0.116
28 | RRIRSRPPRLPRPRPRPSWEPRP | 0.0729
29 | RRIRPRPPRLPRPRPRPLYSPRP | -0.194
30 | RRIRARPPRLPRPRPRPDVHPRP | 0.196
31 | RRIRVRPPRLPRPRPRPWEHPRP | 0.0927
32 | RRIRMRPPRLPRPRPRPLEGPRP | 0.109
33 | RRIRHRPPRLPRPRPRPFENPRP | -0.0293
34 | RRIRKRPPRLPRPRPRPHHAPRP | -0.066
35 | RRIRRRPPRLPRPRPRPISHPRP | -0.215
36 | RRIRVRPPRLPRPRPRPKCAPRP | 0.0145
37 | RRIRKRPPRLPRPRPRPFRLPRP | 0.0113
38 | RRIRFRPPRLPRPRPRPHKPPRP | 0.14
39 | RRIRYRPPRLPRPRPRPLMDPRP | -0.143
40 | RRIRKRPPRLPRPRPRPDKAPRP | 0.0987
41 | RRIRYRPPRLPRPRPRPFLLPRP | -1.19
42 | RRIRERPPRLPRPRPRPPPGPRP | 0.418
43 | RRIRWRPPRLPRPRPRPYAGPRP | 0.0399
44 | RRIRPRPPRLPRPRPRPGCTPRP | 0.104
45 | RRIRKRPPRLPRPRPRPPYWPRP | 0.429
46 | RRIRKRPPRLPRPRPRPWFVPRP | -0.036
47 | RRIRDRPPRLPRPRPRPNIDPRP | 0.068
48 | RRIRVRPPRLPRPRPRPFVLPRP | -0.322
49 | RRIRERPPRLPRPRPRPIGTPRP | -0.976
50 | RRIRGRPPRLPRPRPRPLELPRP | 0.741
